The text below walks through data of PMC6773797, “Identification and molecular characterization of a psychrophilic GH1 β-glucosidase from the subtropical soil microorganism Exiguobacterium sp. GXG2” (AMB Express, 2019).

Substrate in this data set: O=[N+]([O-])c1ccc(O[C@@H]2O[C@H](CO)[C@@H](O)[C@H](O)[C@H]2O)cc1
Nature of the data set: purified protein. The data set is classed as biochemical, Exiguobacterium sp. GXG2. As to conditions: pH 7.0, 35 °C, 1–10 mM substrate.

The Km is the concentration of substrate that gives half-maximal velocity. One may read the kcat as the maximal rate divided by the concentration of active sites.

B1: BglG (Exiguobacterium sp. GXG2) (protein)
chain: MKMPKDFLFGAASASYQVEGAWNVDGKGVSNWDVFSKIPGKTFEATNGDVAIDHYHRYKEDIGLMAEMGLESYRFSISWPRIFPNGTGEVNEKGLEFYNNVIDECLKHGIVPFVTLYHWDLPQVLEEQGGWRSPETADAFVRFAKTCFEAFGDRVRNWITFNETVIFCSLGYLTGAHPPGITGDAKAYFQTTHNVFVAHARAVEAFKEAGYEGEIGITHVFNPAFSIDEAPENKQAEVHANEYATHWFYDPILKGEYPAYVVKDLEKQGLLPEWTEEELDLLKRTAPLNDFIGLNYYCPQRVMKNDSALVMAGGRENSTGRPGNPSFDGVYKTVLMDDKVYTKWGWEIAPDAFLEGMRMLQARYGDIKIYITENGLGDEDPIVGEEIMDTPRIEYIESHLRAVKRAVEEGINVSGYYAWSVIDLLSWLNGYKKQYGFIYVDHANGLARKKKQSFHWYQEIIATRAAEL
notes: six-histidine tag kept, about 58 kDa on SDS-PAGE; pETBlue-2, E. coli Tuner(DE3)pLacI; Ni-NTA purified
Regarding B1, the Km amounted to 1.1 mM and the catalytic constant (kcat) came out at 12.7 s⁻¹.
